Experimental data from patent publication US7951560B2, “Delta 4,5 glycuronidase compositions and methods related thereto” (Massachusetts Institute of Technology, priority 2002, dated 2011).
“Also recorded” adds a separate entry of the source.

Key:
[1] = Storage stability and solubility of the recombinant protein after 6× His tag removal; format: physicochemical; conditions: 6× His tag removed, phosphate buffer
Method: (§1) A two-step purification comprised of Ni^+2 chelation chromatography followed by thrombin cleavage to remove the 6× His purification tag, typically yielded over 200 mg of greater than 90% pure enzyme as assessed by SDS-PAGE followed by Coomassie Brilliant Blue staining. […] T. and Linker, A., 1972, Biochemistry 11, 568-72]. While removal of the 6× His tag from the N-terminus of the enzyme was unnecessary for optimal hydrolytic activity, the presence of the histidine tag did appear to instigate protein precipitation over an extended time especially at higher enzyme concentrations. This tag was, therefore removed for all subsequent biochemical experiments. In this manner, the recombinant protein was stable at 4° C. for at least two weeks during which time it remained in solution at protein concentrations exceeding 10 mg/mL under the buffer conditions described.

[2] = Biochemical conditions for optimal enzyme activity (NaCl, pH, temperature, divalent metals)
Method: For experiments measuring the relative effect of ionic strength on glycuronidase activity, the NaCl concentration was varied from 0.05 to 1 M in 0.1 M sodium phosphate buffer (pH 6.4), 200 μM ΔUHNS,6S and […] under otherwise standard reaction conditions. The effect of pH on catalytic activity was kinetically determined at varying AUHNS,6S concentrations in 0.1 M sodium phosphate buffer at pH 5.2, 5.6, 6.0, 6.4, 6.8, 7.2 and 7.8. Data were fit to Michaelis-Menten kinetics as described above and the relative kcat/Km ratios plotted as a function of pH.
To determine the optimal reaction conditions for Δ4, 5 glycuronidase activity, we analyzed initial reaction rates as a function of buffer, pH, temperature, and ionic strength (FIG. 6). For these experiments, we used the disulfated heparin disaccharide substrate ΔUHNS,6S. Based on what is known about the degradation of heparin/heparan sulfate-like glycosaminoglycans by flavobacteria as well as initial biochemical characterization of this and related enzymes [Warnick, C. T. and Linker, A., 1972, Biochemistry 11, 568-72], we hypothesized that a heparin disaccharide would be an optimal substrate for the Δ4, 5 glycuronidase. Enzyme activity was routinely monitored by a loss of absorbance at 232 nm, corresponding indirectly to the hydrolysis of the uronic acid from the non-reducing end.

[3] = substrate: N[C@H]1C(O)O[C@H](COS(=O)(=O)O)[C@@H](O[C@@H]2OC(C(=O)O)=C[C@H](O)[C@H]2O)[C@@H]1O; test: Kinetic parameters of Δ4, 5 glycuronidase for disaccharide substrates (loss of absorbance at 232 nm, Michaelis-Menten fit); format: biochemical, F. heparinum; conditions: other: 200 nM enzyme, 30° C., pH 6.4, substrate 48 to 400 μM
Method: (§2) Assay for enzyme activity and determination of kinetic parameters. Standard reactions were carried out at 30° C. and included 100 mM sodium phosphate buffer, pH 6.4, 50 mM NaCl, 500 μM disaccharide substrate and 200 nM enzyme in a 100 μl reaction volume. Hydrolysis of heparin disaccharides was determined spectrophotometrically by measuring the loss of the Δ4, 5 chromophore measured at 232 nm Substrate hydrolysis was calculated using the following molar extinction coefficients empirically determined for each disaccharide substrate: ΔUHNAc, ε232=4,524; ΔUHNAc6S, ε232=4,300; ΔUHNS, ε232=6,600; ΔUHNS,6S, ε232=6,075; ΔUHNH26S, ε232=4,826; ΔU2SHNS, ε232=4,433. Initial rates (Vo) were extrapolated from linear activities representing <10% substrate turnover and fit to pseudo first-order kinetics. For kinetic experiments, disaccharide concentration for each respective substrate was varied from 48 to 400 μM concentrations. Km and kcat values were extrapolated from Vo vs. [S] curves fit to the Michaelis Menten equation by a non-linear, least squares regression.
(§3) The specificity of the Δ4, 5 glycuronidase acting on various glycosaminoglycan disaccharide substrates was investigated. The various substrates examined included both heparin and chondroitin disaccharides as well as an hyaluronadate. In particular, we considered the possibility of any structural discriminations pertaining to glycosidic linkage position (1→4 vs. 1→3) and relative sulfation state within the disaccharide. For each substrate, kinetic parameters were determined based on substrate saturation profiles that fit Michaelis-Menten assumptions (FIG. 8).

[4] = substrate: O=C(O)C1=C[C@H](O)[C@@H](O)[C@H](O[C@H]2[C@H](O)[C@@H](NS(=O)(=O)O)C(O)O[C@@H]2CO)O1; test: as above; format: biochemical, F. heparinum; conditions: other: 200 nM enzyme, 30° C., pH 6.4, substrate 48 to 400 μM
Method: as §2, §3

[5] = substrate: CC(=O)N[C@H]1C(O)O[C@H](CO)[C@@H](O[C@@H]2OC(C(=O)O)=C[C@H](O)[C@H]2O)[C@@H]1O; test: as above; format: biochemical, F. heparinum; conditions: other: 200 nM enzyme, 30° C., pH 6.4, substrate 48 to 400 μM
Method: as §2, §3

[6] = substrate: O=C(O)C1=C[C@H](O)[C@@H](O)[C@H](O[C@H]2[C@H](O)[C@@H](NS(=O)(=O)O)C(O)O[C@@H]2COS(=O)(=O)O)O1; test: as above; format: biochemical, F. heparinum; conditions: other: 200 nM enzyme, 30° C., pH 6.4, substrate 48 to 400 μM
Method: as §2, §3

[7] = substrate: CC(=O)N[C@H]1C(O)O[C@H](COS(=O)(=O)O)[C@@H](O[C@@H]2OC(C(=O)O)=C[C@H](O)[C@H]2O)[C@@H]1O; test: as above; format: biochemical, F. heparinum; conditions: other: 200 nM enzyme, 30° C., pH 6.4, substrate 48 to 400 μM
Method: as §2, §3

[8] = Kinetic comparison of native and recombinant enzymes; format: biochemical; conditions: identical reaction conditions, 200 nM enzyme, 500 μM ΔUHNAc
Method: FIG. 7 depicts a kinetic comparison of native and recombinant enzymes. Relative specific activities were measured for both enzyme fractions under identical reaction conditions that included 200 nM enzyme and 500 μM of the heparin disaccharide substrate (ΔUHNAc). Flavobacterial Δ4, 5 (closed circles); recombinant Δ4, 5 (open circles).
Having established the reaction conditions for optimal Δ4, 5 glycuronidase activity, we next compared the specific activity of the recombinant enzyme (Δ4,5^Δ20) relative to the native enzyme purified directly from F. heparinum (FIG. 7). The activities of both enzyme fractions were measured in parallel under identical reaction conditions.

[9] = Specific activity of recombinant Δ4, 5 glycuronidase purification fractions; format: biochemical; conditions: 800 ng protein, 120 μM ΔUHNAc, 100 μl
Method: as §2, §1

B1: recombinant Δ4, 5 glycuronidase (Δ4,5^Δ20) (Pedobacter heparinus DSM 2366) (protein)
chain: MTVTKGNGDDWLKKSTKTAVIQLTRAAQTYTPGMNPRSVNPDGTVRLAPPRDWTTGFFPGTLWYGYELSGDKNLAAEAKRFTLALDTIQYVKDTHDLGFMLYCSYGNAYRVTGDKIYLKPLENGAANLYARFNKKVGAIRSWDFGHWQFPVIIDNLMNLEYLYWAGKEFNKPEWFDAAKTHAVTTMKNHFRKDYSSYHVISYDTLSGKVLQRETHQGLTNESAWARGQAWGLYGYTMSYKDTKDKKFIEHAEHIAAFIMNHPAMPADKIPLWDFDVHNRDRSPRDASAAAVIASALLDLSTQVKDGQKYFKFAEDILKTLSSDEYLAKPGENQFFILKHSVGALLYNSEIDTPLNYADYYYLEALKRYAEIKKIDLKTINQS
In the case of B1, the “stable at 4° C.” value [1] is reported as “at least two weeks”, the “requirement for divalent metal ions” value [2] is reported as “no evidence that metals are either required for catalysis or activate the enzyme” and the pH optimum ([2]; 0.1 M sodium phosphate pH 5.2-7.8, ΔUHNS,6S, relative kcat/Km) is reported as 6.4. The “initial reaction rates at highest temperatures” value ([2]; especially at 42° C.) was “significantly reduced”, the “relative enzyme activities after preincubation (enzyme stability)” value ([2]; preincubation at 30, 37, and 42° C., then measured at standard 30° C.) was “no significant change” and the “inhibition at 250 mM NaCl” value ([2]; relative to 100% activity at 100 mM NaCl) was “approximately 60%”. For the same molecule, the Km [3] was 235 ± 40 µM, the kcat [3] was 2.4 ± 0.2 s⁻¹ and the kcat/Km [3] was 10000 M⁻¹ s⁻¹. The Km [4] was 251 ± 40 µM, the kcat [4] was 4.9 ± 0.4 s⁻¹ and the kcat/Km [4] was 20000 M⁻¹ s⁻¹. It also gave a Km [5] of 283 ± 31 µM, a kcat [5] of 15.3 ± 0.9 s⁻¹ and a kcat/Km [5] of 54000 M⁻¹ s⁻¹. For the same molecule, the Km [6] was 334 ± 57 µM, the kcat [6] was 8.8 ± 0.9 s⁻¹ and the kcat/Km [6] was 26000 M⁻¹ s⁻¹. For the same molecule, the Km [7] was 107 ± 15 µM, the kcat [7] was 11.7 ± 0.6 s⁻¹ and the kcat/Km [7] was 110000 M⁻¹ s⁻¹. For the same molecule, the “specific activity relative to the native Flavobacterial enzyme” value [8] was “approximately three-fold; also recorded: at least two-fold; also recorded: roughly three-fold”, the “Sp. Activity” value ([9]; Crude lysate) was 4.7 μmoles DiS/min./mg protein and the “Sp. Activity” value ([9]; Ni^+2 chromatography) was 12.9 μmoles DiS/min./mg protein. For the same molecule, the “Sp. Activity” value ([9]; Thrombin cleavage) was 13.6 μmoles DiS/min./mg protein.
